Measured values: patent US20040223972A1 (FUNCTIONAL GENETICS, published 2004)

Molecular target: T1, Ebola VP40 (1-326) (Ebola virus (EBOV), UniProt Q05128 1-326)
T1 sequence: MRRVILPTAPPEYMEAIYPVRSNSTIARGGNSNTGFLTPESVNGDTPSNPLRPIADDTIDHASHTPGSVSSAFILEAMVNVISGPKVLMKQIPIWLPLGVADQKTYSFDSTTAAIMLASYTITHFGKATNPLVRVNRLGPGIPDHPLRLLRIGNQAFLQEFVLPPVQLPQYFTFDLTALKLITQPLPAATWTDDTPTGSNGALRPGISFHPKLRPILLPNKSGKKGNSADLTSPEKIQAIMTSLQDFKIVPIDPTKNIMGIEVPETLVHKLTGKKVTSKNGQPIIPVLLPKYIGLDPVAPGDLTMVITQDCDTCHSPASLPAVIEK
Assay: co-immunoprecipitation with anti-Myc antibody from transfected 293T cells

B1: Myc tagged TSG101 truncated at position 140 (other)
chain: MAVSESQLKKMVSKYKYRDLTVRETVNVITLYKDLKPVLDSYVFNDGSSRELMNLTGTIPVPYRGNTYNIPICLWLLDTYPYNPPICFVKPTSSMTIKTGKHVDANGKIYLPYLHEWKHPQSDLLGLIQVMIVVFGDEPP
- binding result: no binding
